Measured values as given in PMC5454376 (2017).

B1: Human His-Gαi3 WT [human] / Fluorescein-labelled RGS12 GoLoco peptide (residues 1,185–1,221) [modified: 5,6-carboxyfluorescein coupled to the resin-bound peptide after chain elongation; 5,6-carboxyfluorescein coupled to the resin-bound … (parent complex)
chain 1: MGCTLSAEDKAAVERSKMIDRNLREDGEKAAKEVKLLLLGAGESGKSTIVKQMKIIHEDGYSEDECKQYKVVVYSNTIQSIIAIIRAMGRLKIDFGEAARADDARQLFVLAGSAEEGVMTPELAGVIKRLWRDGGVQACFSRSREYQLNDSASYYLNDLDRISQSNYIPTQQDVLRTRVKTTGIVETHFTFKDLYFKMFDVGGQRSERKKWIHCFEGVTAIIFCVALSDYDLVLAEDEEMNRMHESMKLFDSICNNKWFTETSIILFLNKKDLFEEKIKRSPLTICYPEYTGSNTYEEAAAYIQCQFEDLNRRKDTKEIYTHFTCATDTKNVQFVFDAVTDVIIKNNLKECGLY
chain 2: DEAEEFFELISKAQSNRADDQRGLLRKEDLVLPEFLR

Variants of: B1
Test: fluorescence polarisation

**Q.** How did the Kd turn out when chain 1 MGCTLSAEDKAAVERSKMIDRNLREDGEKAAKEVKLLLLGAGESGKSTIVKQMKIIHEDGYSEDECKQYKVVVYSNTIQSIIAIIRAMGRLKIDFGEAARADDARQLFVLAGSAEEGVMTPELAGVIKRLWRDGGVQACFSRSREYQLNDSASYYLNDLDRISQSNYIPTQQDVLRTRVKTTGAVETHFTFKDLYFKMFDVGGQRSERKKWIHCFEGVTAIIFCVALSDYDLVLAEDEEMNRMHESMKLFDSICNNKWFTETSIILFLNKKDLFEEKIKRSPLTICYPEYTGSNTYEEAAAYIQCQFEDLNRRKDTKEIYTHFTCATDTKNVQFVFDAVTDVIIKNNLKECGLY [chain 1 I184A] was run?
**A.** 83 nM

**Q.** With chain 1 MGCTLSAEDKAAVERSKMIDRNLREDGEKAAKEVKLLLAGAGESGKSTIVKQMKIIHEDGYSEDECKQYKVVVYSNTIQSIIAIIRAMGRLKIDFGEAARADDARQLFVLAGSAEEGVMTPELAGVIKRLWRDGGVQACFSRSREYQLNDSASYYLNDLDRISQSNYIPTQQDVLRTRVKTTGIVETHFTFKDLYFKMFDVGGQRSERKKWIHCFEGVTAIIFCVALSDYDLVLAEDEEMNRMHESMKLFDSICNNKWFTETSIILFLNKKDLFEEKIKRSPLTICYPEYTGSNTYEEAAAYIQCQFEDLNRRKDTKEIYTHFTCATDTKNVQFVFDAVTDVIIKNNLKECGLY [chain 1 L39A] as the variant, how does the Kd read?
**A.** 176 nM

**Q.** With chain 1 MGCTLSAEDKAAVERSKMIDRNLREDGEKAAKEVKLLLLGAGESGKSTIVKQMKIIHEDGYSEDECKQYKVVVYSNTIQSIIAIIRAMGRLKIDFGEAARADDARQLFVLAGSAEEGVMTPELAGVIKRLWRDGGVQACFSRSREYQLNDSASYYLNDLDRISQSNYIPTQQDVLRTRVKTTGIVETHFTFKDLYFKMFDVGGQRSERKKWIHCFEGVTAIIFCVALSDYDLVLAEDEEMNRMHESMKLFDSICNAKWFTETSIILFLNKKDLFEEKIKRSPLTICYPEYTGSNTYEEAAAYIQCQFEDLNRRKDTKEIYTHFTCATDTKNVQFVFDAVTDVIIKNNLKECGLY [chain 1 N256A] as the variant, how does the Kd read?
**A.** 77 nM

**Q.** With chain 1 MGCTLSAEDKAAVERSKMIDRNLREDGEKAAKEVKLALLGAGESGKSTIVKQMKIIHEDGYSEDECKQYKVVVYSNTIQSIIAIIRAMGRLKIDFGEAARADDARQLFVLAGSAEEGVMTPELAGVIKRLWRDGGVQACFSRSREYQLNDSASYYLNDLDRISQSNYIPTQQDVLRTRVKTTGIVETHFTFKDLYFKMFDVGGQRSERKKWIHCFEGVTAIIFCVALSDYDLVLAEDEEMNRMHESMKLFDSICNNKWFTETSIILFLNKKDLFEEKIKRSPLTICYPEYTGSNTYEEAAAYIQCQFEDLNRRKDTKEIYTHFTCATDTKNVQFVFDAVTDVIIKNNLKECGLY [chain 1 L37A] as the variant, how does the Kd read?
**A.** 80 nM

**Q.** Which Kd does the source give for chain 1 MGCTLSAEDKAAVERSKMIDRNLREDGEKAAKEVKALLLGAGESGKSTIVKQMKIIHEDGYSEDECKQYKVVVYSNTIQSIIAIIRAMGRLKIDFGEAARADDARQLFVLAGSAEEGVMTPELAGVIKRLWRDGGVQACFSRSREYQLNDSASYYLNDLDRISQSNYIPTQQDVLRTRVKTTGIVETHFTFKDLYFKMFDVGGQRSERKKWIHCFEGVTAIIFCVALSDYDLVLAEDEEMNRMHESMKLFDSICNNKWFTETSIILFLNKKDLFEEKIKRSPLTICYPEYTGSNTYEEAAAYIQCQFEDLNRRKDTKEIYTHFTCATDTKNVQFVFDAVTDVIIKNNLKECGLY [chain 1 L36A] here?
**A.** 119 nM

**Q.** With chain 1 MGCTLSAEDKAAVERSKMIDRNLREDGEKAAKEVKLLLLGAGESGKSTIVKQMKIIHEDGYSEDECKQYKVVVYSNTIQSIIAIIRAMGRLKIDFGEAARADDARQLFVLAGSAEEGVMTPELAGVIKRLWRDGGVQACFSRSREYQLNDSASYYLNDLDRISQSNYIPTQQDVLRTRVKTTGIVETHFTFKDLYFKMFDVGGQRSERKKWIHCFEGVTAIIFCVALSDYDLVLAEDEEMNRMHESMKLFDSICNNKFFTETSIILFLNKKDLFEEKIKRSPLTICYPEYTGSNTYEEAAAYIQCQFEDLNRRKDTKEIYTHFTCATDTKNVQFVFDAVTDVIIKNNLKECGLY [chain 1 W258F] as the variant, how does the Kd read?
**A.** 63 nM

**Q.** How did the Kd turn out when chain 1 MGCTLSAEDKAAVERSKMIDRNLREDGEKAAKEVKLLLLGAGESGKSTIVKQMKIIHEDGYSEDECKQYKVVVYSNTIQSIIAIIRAMGRLKIDFGEAARADDARQLFVLAGSAEEGVMTPELAGVIKRLWRDGGVQACFSRSREYQLNDSASYYLNDLDRISQSNYIPTQQDVLRTRVKTTGIVETHFTFKDLYFKMFDVGGQRSERKKWIHCFEGVTAIIFCVALSDYDLVLAEDEEMNRMHESMKLFDSICNNAWFTETSIILFLNKKDLFEEKIKRSPLTICYPEYTGSNTYEEAAAYIQCQFEDLNRRKDTKEIYTHFTCATDTKNVQFVFDAVTDVIIKNNLKECGLY [chain 1 K257A] was run?
**A.** 86 nM

**Q.** For chain 1 MGCTLSAEDKAAVERSKMIDRNLREDGEKAAKEVKLLLLGAGESGKSTIVKQMKIIHEDGYSEDECKQYKVVVYSNTIQSIIAIIRAMGRLKIDFGEAARADDARQLFVLAGSAEEGVMTPELAGVIKRLWRDGGVQACFSRSREYQLNDSASYYLNDLDRISQSNYIPTQQDVLRTRVKTTGIVETHFTFKDLYFKMFDVGGQRSERKKWIHCAEGVTAIIFCVALSDYDLVLAEDEEMNRMHESMKLFDSICNNKWFTETSIILFLNKKDLFEEKIKRSPLTICYPEYTGSNTYEEAAAYIQCQFEDLNRRKDTKEIYTHFTCATDTKNVQFVFDAVTDVIIKNNLKECGLY [chain 1 F215A], which Kd is on record?
**A.** 551 nM
